Measurements taken from PMC10325899.

Biological target: fluorescein labeled GST-PKM1 (UniProt P14618)
Assay: MST; 40 nM fluorescein-labelled PKM1 with salt-washed ribosomes titrated from 0 to about 1.5 μM in PBS + 5 mM MgCl2, room temperature; three batches of ribosomes fitted globally to a 1:1 model; binding not fully saturated

UniProt P14618, sequence (P14618 other isoform, or with tags, fused parts or gaps): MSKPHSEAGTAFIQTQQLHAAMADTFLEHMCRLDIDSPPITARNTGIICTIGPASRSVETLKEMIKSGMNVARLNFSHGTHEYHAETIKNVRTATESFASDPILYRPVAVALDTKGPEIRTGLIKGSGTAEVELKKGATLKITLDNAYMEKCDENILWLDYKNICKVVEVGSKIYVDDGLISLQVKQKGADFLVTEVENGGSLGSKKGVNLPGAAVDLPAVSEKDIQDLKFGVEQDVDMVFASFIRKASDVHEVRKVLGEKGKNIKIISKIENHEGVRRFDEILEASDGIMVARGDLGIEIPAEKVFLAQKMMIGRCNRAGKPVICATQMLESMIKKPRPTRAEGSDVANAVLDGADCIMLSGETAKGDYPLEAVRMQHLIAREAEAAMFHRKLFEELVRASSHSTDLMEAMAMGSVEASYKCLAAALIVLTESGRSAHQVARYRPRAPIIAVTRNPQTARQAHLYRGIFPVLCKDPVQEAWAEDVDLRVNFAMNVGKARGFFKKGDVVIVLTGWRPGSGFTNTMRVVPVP

## salt-washed ribosomes isolated from HEK293F cells (from UniProt P36578 1-427) (complex)
  Kd: 900 nM
